Source: doi:10.1101/2023.10.09.561567 (bioRxiv, 2023)

How the values were obtained:
[1] = biological target: IL-33 released from CMT-64 cells (mouse (endogenous in CMT-64)) (UniProt Q8BVZ5); test: ELISA
[2] = biological target: HpARI3 (Heligmosomoides polygyrus bakeri); test: SPR
[3] = biological target: HpARI1 (Heligmosomoides polygyrus bakeri); test: SPR
[4] = biological target: HpARI2 (Heligmosomoides polygyrus bakeri); test: SPR
[5] = biological target: T1, IL-33 released from CMT-64 cells (mouse (endogenous in CMT-64), UniProt Q8BVZ5 1-266); test: ELISA
T1 sequence (looked up): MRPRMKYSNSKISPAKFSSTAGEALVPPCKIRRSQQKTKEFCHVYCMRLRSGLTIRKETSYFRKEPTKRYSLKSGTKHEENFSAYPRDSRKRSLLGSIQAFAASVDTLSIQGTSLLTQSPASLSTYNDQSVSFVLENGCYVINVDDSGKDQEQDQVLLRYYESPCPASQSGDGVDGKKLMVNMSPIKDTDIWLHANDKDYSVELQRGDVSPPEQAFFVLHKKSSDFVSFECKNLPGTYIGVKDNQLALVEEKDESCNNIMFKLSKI

HpARI1 (natural protein)
IC50 [1]: 0.8 nM

mouse IL-33 (purified) (from UniProt Q8BVZ5 1-266) (ligand)
Kd [2]: 0.4 nM | Kd [3]: 0.04 nM | Kd [4]: 0.04 nM

HpARI2 (natural protein)
IC50 [1]: 0.8 nM

B1: HpARI3 (natural protein, Heligmosomoides polygyrus bakeri, UniProt A0A183GRJ4 1-248, looked up)
chain: SLGCKFTDVEKDKGYTGMLVGGKRRESAANGQKVELVCGRGNHNYTCKSGILTEESYRQGRCGCEGILQMLLDKPKDSPMYDSVTYDPTPNTPTTVGKDGIWNGVDYRNGSTVRPYCDTGPIINGSPKAVCVSGKWVPKLGDCPKMCSISSLKENGKFLNVTATTTGDELNPRPREQTLIPIVRKVDKDKVQHGVKVVALCKAKYSTTAAENVQKFECDNGKWKPKPVPCS
modifications: chemically biotinylated with EZ-Link Sulfo-NHS-Biotin (for SPR only)
IC50 [5]: ~6 nM
